Laboratory results: paper PMC7363153

Key:
1N4R Tau (human) = 1N4R Tau (human) (UniProt P10636)
1N3R Tau (human) = 1N3R Tau (human) (UniProt P10636)

| disaggregation of 1N4R Tau fibrils with HSC70, HSPA4 and ATP: Tau shifted to the supernatant fraction (centrifugation, immunoblot) (1N4R Tau (human)) | disaggregation of 1N3R Tau fibrils with HSC70, HSPA4 and ATP: Tau shifted to the supernatant fraction (centrifugation, immunoblot) (1N3R Tau (human)) | Substance |
| --- | --- | --- |
| 26% | 50% | DNAJB1 (from UniProt P25685 1-340) (natural protein) |
| 36% | 50% | DNAJB4 (from UniProt Q9UDY4 1-337) (natural protein) |
